{"source": "IntAct's records for PubMed 17403664", "parents": {"B1": {"name": "Differentially expressed in FDCP 6 (Mus musculus), Q8C2K1 (parent)", "chain": "MALRKELLKSIWYAFTALDVEKSGKVSKSQLKVLSHNLYTVLNIPHDPVALEEHFRDDDDGPVSSQGYMPYLNKYILDKVEEGAFVKEHFDELCWTLTAKKNYRADGIGSSPLSNQDAFRLWCLFNFLSEDKYPLIMVPDEVEYLLKKLLGSLSLEMGLGELEELLAQDAQSAQTAVGLSVWQFLELFNSGRCLRGVGRDSLSMAIQEVYQELIQDVLKQGYLWKRGHLRRNWAERWFQLQPSSLCYFGSEECKEKRGTIPLDAHCCVEVLPDREGKRCMFCVKTASRTYEMSASDTRQRQEWTAAIQTAIRLQAEGKTSLHKDLKQKRREQREQRERRRAAKEEELLRLQQLQEEKERKLQELELLQEAQRQAERLLQEEEERRRSQHKELQQALEGQLREAEQARASMQAEMELKKEEAARQRQRIAELEEMQERLQEALQLEVKARRDEEAVRLAQTRLLEEEEEKLKQLMHLKEEQERYIERAQQEKQELQQEMALQSRSLQHAQQQLEEVRQNRQRADEDVEAAQRKLRQASTNVKHWNVQMNRLMHPIEPGDKRPTTSSSFTGFQPPPLARRDSSLKRLTRWGSQGNRTLSVNSSEQKSLNGGDETPILALASQEEKLDPAPGN", "partner": "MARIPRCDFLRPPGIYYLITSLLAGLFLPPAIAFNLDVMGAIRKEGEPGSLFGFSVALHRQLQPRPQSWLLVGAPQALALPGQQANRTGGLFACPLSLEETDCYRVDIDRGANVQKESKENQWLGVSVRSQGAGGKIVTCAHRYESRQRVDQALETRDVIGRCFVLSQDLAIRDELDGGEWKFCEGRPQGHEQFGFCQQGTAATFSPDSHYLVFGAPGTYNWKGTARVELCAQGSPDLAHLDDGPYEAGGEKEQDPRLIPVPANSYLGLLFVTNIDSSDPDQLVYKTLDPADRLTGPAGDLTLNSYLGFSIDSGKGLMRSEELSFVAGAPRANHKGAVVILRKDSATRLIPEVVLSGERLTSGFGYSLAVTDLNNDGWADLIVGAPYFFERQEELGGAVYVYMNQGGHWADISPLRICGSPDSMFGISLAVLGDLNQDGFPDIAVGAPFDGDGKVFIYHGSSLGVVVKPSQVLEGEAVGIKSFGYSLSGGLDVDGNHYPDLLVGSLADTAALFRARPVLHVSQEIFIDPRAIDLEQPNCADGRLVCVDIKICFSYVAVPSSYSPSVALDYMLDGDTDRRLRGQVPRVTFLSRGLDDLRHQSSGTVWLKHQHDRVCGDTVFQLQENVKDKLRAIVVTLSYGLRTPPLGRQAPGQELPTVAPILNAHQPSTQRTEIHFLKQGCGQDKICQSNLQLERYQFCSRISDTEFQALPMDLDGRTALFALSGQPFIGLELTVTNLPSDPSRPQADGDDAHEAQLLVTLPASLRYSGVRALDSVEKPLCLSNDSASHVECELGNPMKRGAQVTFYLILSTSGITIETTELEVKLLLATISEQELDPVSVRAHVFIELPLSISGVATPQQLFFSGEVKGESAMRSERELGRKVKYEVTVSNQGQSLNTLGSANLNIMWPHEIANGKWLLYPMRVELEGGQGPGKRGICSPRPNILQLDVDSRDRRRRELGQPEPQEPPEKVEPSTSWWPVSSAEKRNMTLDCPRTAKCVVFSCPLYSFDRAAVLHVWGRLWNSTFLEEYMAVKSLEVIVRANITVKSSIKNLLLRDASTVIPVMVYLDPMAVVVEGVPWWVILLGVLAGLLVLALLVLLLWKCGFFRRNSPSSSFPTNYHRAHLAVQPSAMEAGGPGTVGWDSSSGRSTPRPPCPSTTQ"}}}
{"variants_of": "B1", "conditions": "with Itga7, Q61738-6"}
{"variant": "Y210E", "effect of a mutation on the interaction": "decreasing interaction"}
